Test results from US20170174783A1 (Zymeworks, published 2017).

Legend:
[1] = molecular target: T1, HER2 on the surface of human tumour cell lines (human, UniProt P04626 23-1255); experiment: flow cytometry on SKOV3 cells
T1 construct: whole, on cells; also called ErbB2; Her2 receptor
Experimental: (§1) Binding of the test antibodies to the surface of SKOV3 cells was determined by flow cytometry. Cells were washed with PBS and resuspended in DMEM at 1×10⁵ cells/100 μl. 100 μl cell suspension was added into each microcentrifuge tube, followed by 10 μl/tube of the antibody variants. The tubes were incubated for 2 hr 4° C. on a rotator. The microcentrifuge tubes were centrifuged for 2 min 2000 RPM at room temperature and the cell pellets washed with 500 μl media. Each cell pellet was resuspended 100 μl of fluorochrome-labelled secondary antibody diluted in media to 2 μg/sample. The samples were then incubated for 1 hr at 4° C. on a rotator. After incubation, the cells were centrifuged for 2 min at 2000 RPM and washed in media. The cells were resuspended in 500 μl media, filtered in tube containing 5 μl propidium iodide (PI) and analyzed on a BD LSRII flow cytometer according to the manufacturer's instructions.

[2] = molecular target: T1, HER2 on the surface of human tumour …; experiment: flow cytometry on SKOV3 cells; remark: listed apart in the source
Experimental: as §1

[3] = molecular target: T1, HER2 on the surface of human tumour …; experiment: flow cytometry on MALME-3M cells

B1: OA4-scFv-BID2 (antibody)
chain 1: QVQLVQSGAEVKKPGESLKISCKGSGYSFTSYWIAWVRQMPGKGLEYMGLIYPGDSDTKYSPSFQGQVTISVDKSVSTAYLQWSSLKPSDSAVYFCARHDVGYCTDRTCAKWPEWLGVWGQGTLVTVSSGGGGSSGGGSGGGGSQSVLTQPPSVSAAPGQKVTISCSGSSSNIGNNYVSWYQQLPGTAPKLLIYDHTNRPAGVPDRFSGSKSGTSASLAISGFRSEDEADYYCASWDYTLSGWVFGGGTKLTVLGAAEPKSSDKTHTCPPCPAPELLGGPSVFLFPPKPKDTLMISRTPEVTCVVVDVSHEDPEVKFNWYVDGVEVHNAKTKPREEQYNSTYRVVSVLTVLHQDWLNGKEYKCKVSNKALPAPIEKTISKAKGQPREPQVYTYPPSRDELTKNQVSLTCLVKGFYPSDIAVEWESNGQPENNYKTTPPVLDSDGSFALVSKLTVDKSRWQQGNVFSCSVMHEALHNHYTQKSLSLSPGK
chain 2: not shown
notes: also called 878
Kd [1]: 12.4 nM
fold difference in Bmax, OA4-scFv-BID2 against FSA-scFv-BID2 [2]: 1.96 fold
fold difference in KD, OA4-scFv-BID2 against FSA-scFv-BID2 [2]: 2.03 fold
EC50 (read off the curve) [3]: ~30 nM
